Results from patent publication US20060217290A1 (published 2006).

Key:
human insulin receptor = target: T1, human insulin receptor (human, UniProt P06213 28-1382); assay: competitive binding SPA, displacement of [125I] insulin from human IR membranes
T1 construct: whole, on cells; Assayed as membrane preparation (P1) of transfected 293EBNA cells, not as intact cells; also called IR; HIR

human IGF-1 receptor = target: T2, human IGF-1 receptor (human, UniProt P08069 31-1367); assay: competitive binding SPA, displacement of [125I]IGF-1 from human IGF-1R membranes
T2 construct: whole, on cells; Assayed as membrane preparation (P1) of transfected 293EBNA cells, not as intact cells; also called IGF-R; insulin growth factor receptor

B1: A0^ArgA21^GlyB29^ArgB31^ArgB32^Lys-human insulin (ligand)
chain 1: RGIVEQCCTSICSLYQLENYCG
chain 2: FVNQHLCGSHLVEALYLVCGERGFFYTPRTRK
notes: Insulin analog; Disulfides A7-B7, A20-B19, A6-A11; also called ArgA0, GlyA21, ArgB29, ArgB31, LysB32-human insulin
Human insulin receptor
  Relative IR Affinity (Mean): 0.21 relative to recombinant human insulin
Human IGF-1 receptor
  Relative IGF1-R Affinity (Mean): 1.1 relative to recombinant human insulin
